# Measured values published in patent US20250340613A1 (JOINT STOCK COMPANY BIOCAD, published 2025).
# T1: C-Avi-His-TEVs-HSA_hBCMA, Tumor necrosis factor receptor superfamily member 17 (Homo sapiens) aa 1-54 (Homo sapiens, UniProt Q02223 1-54)
# T1 construct: range 1-54; not shown: Avi, His, TEV site and HSA parts as the name implies
# T1 sequence (looked up): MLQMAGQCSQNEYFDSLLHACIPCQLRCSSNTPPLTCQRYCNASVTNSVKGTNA
# T2: IL5R-His, Interleukin-5 receptor subunit alpha (Homo sapiens) aa 22-342 (Homo sapiens, UniProt Q01344 22-342)
# T2 construct: not shown: His tag as the name implies
# T2 sequence (looked up): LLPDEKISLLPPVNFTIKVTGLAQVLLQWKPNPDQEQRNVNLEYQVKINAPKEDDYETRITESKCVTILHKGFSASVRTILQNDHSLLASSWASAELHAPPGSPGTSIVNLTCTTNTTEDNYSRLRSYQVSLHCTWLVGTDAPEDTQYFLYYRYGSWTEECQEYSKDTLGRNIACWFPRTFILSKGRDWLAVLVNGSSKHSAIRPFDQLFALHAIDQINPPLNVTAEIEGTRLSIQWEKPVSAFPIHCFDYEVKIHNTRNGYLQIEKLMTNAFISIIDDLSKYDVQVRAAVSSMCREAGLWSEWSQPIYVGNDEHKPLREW
# T3: hIL4R-His, Interleukin-4 receptor subunit alpha (Homo sapiens) aa 27-227 (Homo sapiens, UniProt P24394 27-227)
# T3 construct: range 27-227; not shown: His tag as the name implies
# T3 sequence (looked up): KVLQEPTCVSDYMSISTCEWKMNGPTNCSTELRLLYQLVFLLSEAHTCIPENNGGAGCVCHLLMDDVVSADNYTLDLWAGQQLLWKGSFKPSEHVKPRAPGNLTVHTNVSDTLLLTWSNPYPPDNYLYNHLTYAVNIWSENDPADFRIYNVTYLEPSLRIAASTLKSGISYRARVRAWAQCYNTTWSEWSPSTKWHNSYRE
# T4: hisOX40, Tumor necrosis factor receptor superfamily member 4 (Homo sapiens) aa 26-210 (Homo sapiens, UniProt P43489 26-210)
# T4 construct: range 26-210; The tag is put first only because the name begins with His; not shown: His tag as the name implies
# T4 sequence (looked up): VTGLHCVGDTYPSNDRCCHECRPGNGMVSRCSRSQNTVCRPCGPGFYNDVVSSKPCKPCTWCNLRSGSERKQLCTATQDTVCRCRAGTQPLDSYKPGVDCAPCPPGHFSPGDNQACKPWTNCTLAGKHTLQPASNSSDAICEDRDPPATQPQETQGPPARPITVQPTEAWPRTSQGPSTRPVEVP
# T5: hCD38-Avi, ADP-ribosyl cyclase/cyclic ADP-ribose hydrolase 1 (Homo sapiens) aa 43-300 (Homo sapiens, UniProt P28907 43-300)
# T5 construct: range 43-300; not shown: Avi tag as the name implies
# T5 sequence (looked up): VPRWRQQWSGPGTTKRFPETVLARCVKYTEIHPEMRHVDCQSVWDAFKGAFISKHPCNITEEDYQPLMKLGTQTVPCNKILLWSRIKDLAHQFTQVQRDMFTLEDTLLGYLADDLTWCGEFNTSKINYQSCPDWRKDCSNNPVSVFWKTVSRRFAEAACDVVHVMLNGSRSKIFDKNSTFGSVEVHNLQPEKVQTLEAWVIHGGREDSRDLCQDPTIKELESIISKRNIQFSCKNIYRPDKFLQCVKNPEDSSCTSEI
# B1: 02-008, bivalent bispecific chimeric antibody that specifically binds to CD20 and CSF1R (bispecific antibody, human IgG1, kappa, L234A L235A)
# heavy 1: EVQLVESGGGLVQPGGSLRLSCAASGYTFTSYNMHWVRQAPGKGLEWVGAIYPGNGDTSYNQKFKGRFTISVDKSKNTLYLQMNSLRAEDTAVYYCARVVYYSNSYWYFDVWGQGTLVTVSSASTKGPSVFPLAPSSKSTSGGTAALGCLVKDYFPEPVTVSWNSGALTSGVHTFPAVLQSSGLYSLSSVVTVPSSSLGTQTYICNVNHKPSNTKVDKRVEPKSCDKTHTCPPCPAPEAAGGPSVFLFPPKPKDTLYITREPEVTCVVVDVSHEDPEVKFNWYVDGVEVHNAKTKPREEQYNSTYRVVSVLTVLHQDWLNGKEYKCKVSNKALPAPIEKTISKAKGQPREPQVCTLPPSRDELTKNQVSLSCAVKGFYPSDIAVEWESNGQPENNYKTTPPVLDSDGSFFLVSKLTVDKSRWQQGNVFSCSVMHEALHNHYTQKSLSLSPGK
# light 1: DIQMTQSPSSLSASVGDRVTITCRASSSVSYMHWYQQKPGKAPKPLIYAPSNLASGVPSRFSGSGSGTDFTLTISSLQPEDFATYYCQQWSFNPPTFGQGTKVEIKRTVAAPSVFIFPPSDEQLKSGTASVVCLLNNFYPREAKVQWKVDNALQSGNSQESVTEQDSKDSTYSLSSTLTLSKADYEKHKVYACEVTHQGLSSPVTKSFNRGEC
# heavy 2: not shown
# light 2: QAGLTQPPSVSVAPGQTARITCGGNNIGSKSVHWYQQKPGQAPVLVVYGDSDRPSGIPERFSGSNSGNTATLTISRVEAGDEADYYCQVWDISSDHVVFGGGTQLTVLQRQVKPEAWLSSGPSPGPGRLQLVCHVSGFYPKPVWVMWMRGEQEQQGTQLGDILPNANWTWYLRATLDVADGEAAGLSCRVKHSSLEGQDIILYWRGSC
# notes: Produced in CHO cells
# Key:
# [1] = molecular target: T6, Macaca CSF1R_C-His, Macrophage colony-stimulating factor 1 receptor (Macaca mulatta) aa 20-513 (Macaca mulatta); test: BLI Octet RED 384; antibody on ProA sensor, antigen 30 ug/ml (534.8 nM); response at end of association
# T6 construct: range 20-513
# Protocol: (§1) Experimental study of nonspecific binding of bispecific chimeric antibodies to non-target antigens was performed on Forte Bio Octert RED 384. Protein A (ProA) biosensors (ForteBio) were immersed into a solution containing antibodies at a concentration of 10 μg/ml for 150 seconds to immobilize same. The baseline was recorded in a 1×KB solution for 30 seconds. The antibody-loaded sensors were then immersed into wells containing non-target antigens at a concentration of 30 μg/ml for 150 seconds. Complex dissociation was then recorded for 30 seconds.
# (§2) The reference sensors went through all the steps as the sensors used to record analyte sensograms did, with the exception of the association step—at the association step, the sensors were immersed in a kinetic buffer solution without analyte (the reference sensor signals were measured in parallel with the recording of the main sensograms). The reference signal was subtracted from the signal received on sensors interacting with the analyte during the processing of sensograms.
# (§3) Sensograms were processed using ForteBio Octet Data Analysisn 9.0 software. To report no non-specific interaction, the recorded signal level was checked at the end of the association step (the response parameter).
# [2] = molecular target: T1, C-Avi-His-TEVs-HSA_hBCMA, Tumor …; test: BLI Octet RED 384; antibody on ProA sensor, antigen 30 ug/ml (391.2 nM); response at end of association
# Protocol: as §1, §2, §3
# [3] = molecular target: T2, IL5R-His, Interleukin-5 receptor …; test: BLI Octet RED 384; antibody on ProA sensor, antigen 30 ug/ml (757.6 nM); response at end of association
# Protocol: as §1, §2, §3
# [4] = molecular target: T3, hIL4R-His, Interleukin-4 receptor …; test: BLI Octet RED 384; antibody on ProA sensor, antigen 30 ug/ml (1154 nM); response at end of association
# Protocol: as §1, §2, §3
# [5] = molecular target: T4, hisOX40, Tumor necrosis factor receptor …; test: BLI Octet RED 384; antibody on ProA sensor, antigen 30 ug/ml (1310 nM); response at end of association
# Protocol: as §1, §2, §3
# [6] = molecular target: T7, extracellular domain of the human PD-1 protein (hPD1ex-H6F) (Homo sapiens, UniProt Q15116 21-170); test: BLI Octet RED 384; antibody on ProA sensor, antigen 30 ug/ml (1456 nM); response at end of association
# T7 construct: Molecular weight 20.6 kDa; made in CHO cells; also called hPDlex-H6F; not shown: C-terminal His and FLAG tags
# Protocol: as §1, §2, §3
# [7] = molecular target: T5, hCD38-Avi, ADP-ribosyl cyclase/cyclic …; test: BLI Octet RED 384; antibody on ProA sensor, antigen 30 ug/ml (854.7 nM); response at end of association
# Protocol: as §1, §2, §3
# [8] = molecular target: T8, Her3-H6F, Receptor tyrosine-protein kinase erbB-3 (Homo sapiens) aa 21-643 (Homo sapiens, UniProt P21860 21-643); test: BLI Octet RED 384; antibody on ProA sensor, antigen 30 ug/ml (420.8 nM); response at end of association
# T8 construct: not shown: His and FLAG tags implied by the name 'H6F'
# Protocol: as §1, §2, §3
# T7 sequence (Q15116 21-170 limits assumed, form in doubt): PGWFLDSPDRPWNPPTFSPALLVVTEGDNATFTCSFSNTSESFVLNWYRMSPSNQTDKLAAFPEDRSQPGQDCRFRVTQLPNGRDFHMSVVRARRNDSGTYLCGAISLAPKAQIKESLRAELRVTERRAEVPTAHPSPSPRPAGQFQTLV
# T8 sequence (P21860 21-643 limits assumed): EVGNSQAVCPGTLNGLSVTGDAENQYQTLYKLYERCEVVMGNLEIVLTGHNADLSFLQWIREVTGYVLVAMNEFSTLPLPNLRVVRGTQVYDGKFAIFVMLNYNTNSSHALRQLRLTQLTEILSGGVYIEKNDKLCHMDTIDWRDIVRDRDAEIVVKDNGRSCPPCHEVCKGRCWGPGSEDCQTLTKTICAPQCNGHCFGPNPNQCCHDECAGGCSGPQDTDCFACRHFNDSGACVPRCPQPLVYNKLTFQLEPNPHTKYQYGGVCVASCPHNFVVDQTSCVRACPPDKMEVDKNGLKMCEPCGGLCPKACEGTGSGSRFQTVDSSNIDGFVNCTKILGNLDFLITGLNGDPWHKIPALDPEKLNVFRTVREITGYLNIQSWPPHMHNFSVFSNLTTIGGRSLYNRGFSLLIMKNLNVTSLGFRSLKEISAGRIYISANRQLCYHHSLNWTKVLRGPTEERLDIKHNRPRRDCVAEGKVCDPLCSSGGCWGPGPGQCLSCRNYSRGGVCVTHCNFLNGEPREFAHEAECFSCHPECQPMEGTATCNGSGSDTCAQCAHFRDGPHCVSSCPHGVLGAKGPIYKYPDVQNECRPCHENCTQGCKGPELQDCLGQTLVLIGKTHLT
binder,measurement,setting,value
B1,Signal level (nm),[1],0.549 nm
same,Signal level (nm),[2],-0.0023 nm
same,Signal level (nm),[3],0.0098 nm
same,Signal level (nm),[4],-0.002 nm
same,Signal level (nm),[5],-0.012 nm
same,Signal level (nm),[6],-0.0033 nm
same,Signal level (nm),[7],0.0028 nm
same,Signal level (nm),[8],-0.0108 nm
